Experimental data published in publication PMC12022045 (Nature Communications, 2025).

What was measured:
[1] = target: T1, TAFH (human, UniProt O00268 582-678); test: NMR titration
T1 sequence (looked up): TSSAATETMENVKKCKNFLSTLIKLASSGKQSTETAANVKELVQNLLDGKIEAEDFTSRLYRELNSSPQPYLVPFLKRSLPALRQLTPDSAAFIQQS

[2] = target: T2, MED15-ABD3 (human, UniProt Q96RN5-2 453-561); test: NMR titration
T2 sequence (looked up): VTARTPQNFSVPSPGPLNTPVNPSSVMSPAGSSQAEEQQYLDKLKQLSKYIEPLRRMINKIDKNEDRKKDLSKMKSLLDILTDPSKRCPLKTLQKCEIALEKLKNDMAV

[3] = target: T2, MED15-ABD3; test: SPR

B1: FLTWL pentapeptide (peptide)
peptide: FLTWL
**Q.** Which results are given for B1?
**A.** binding result [1]: binds; binding result [2]: binds

B2: α-helix-based peptide SDILNDMESVLAATK (peptide)
peptide: SDILNDMESVLAATK
**Q.** Does B2 bind [1]?
**A.** binds

B3: YAP-TAD (domain or fragment, human, UniProt P46937 450-504, looked up)
chain: GTNVDLGTLEGDGMNIEGEELMPSLQEALSSDILNDMESVLAATKLDKESFLTWL
**Q.** With B3 as the binder, how does the Kd [3] read?
**A.** 160 ± 54.3 nM
